Read-outs that look alike come from different tables or passages of the source. Positions of bridges follow the written chain, without caps; N, C: chain ends. Non-standard residues stand in square brackets, D forms with d. Residues, ends and D or L forms follow the SMILES beside them. hArg = N=C(N)NCCCC[C@H](N)C(=O)O; Mpa = O=C(O)CCS
B1: adenosine deaminase (protein, UniProt P00813 2-363, looked up)
Adenosine deaminase: AQTPAFDKPKVELHVHLDGSIKPETILYYGRRRGIALPANTAEGLLNVIGMDKPLTLPDFLAKFDYYMPAIAGCREAIKRIAYEFVEMKAKEGVVYVEVRYSPHLLANSKVEPIPWNQAEGDLTPDEVVALVGQGLQEGERDFGVKARSILCCMRHQPNWSPKVVELCKKYQQQTVVAIDLAGDETIPGSSLLPGHVQAYQEAVKSGIHRTVHAGEVGSAEVVKEAVDILKTERLGHGYHTLEDQALYNRLRQENMHFEICPWSSYLTGAWKPDTEHAVIRLKNDQANYSLNTDDPLIFKSTLDTDYQMTKRDMGFTEEEFKRLNINAAKSSFLPEDEKRELLDLLYKAYGMPPSASAGQNL
notes: human recombinant adenosine deaminase, removes adenosine

How the values were obtained:
[1] = test system: SPM production in human whole blood; assay: SPM and eicosanoid production during coagulation with heparin, eptifibatide, ADA, celecoxib or BAI; format: cell-based
Protocol: FIG. 2 illustrates regulators of SPM formation in human blood. (A to E) Freshly drawn human peripheral blood (4 ml) containing heparin (10 U/ml) was placed in polypropylene tubes (A) whereas human peripheral blood without anticoagulant was placed in silicone-coated tubes (B to E) and incubated at 37° C. for the time course of 0 to 24 hours (see Example 1, Materials and Methods). The samples were then subjected to snap-freezing for extraction and LC-MS/MS analysis. (A) Concentrations of the members of the SPM cluster (identified in FIG. 1) in samples treated without (Coag.) or with heparin (10 U/ml) during the incubation period. Data are means±SEM of three individual donors. (B) Left: Combined concentrations of the total SPM cluster, prostaglandins, and thromboxanes after 24 hours of coagulation in the presence or absence of the αIIbβ3 inhibitor eptifibatide (Eptifib.; 20 μM). Middle: Clot volumes after 24 hours of coagulation of the indicated samples. Right: Representative clot images. Data are means±SEM of three individual donors. (C) Concentrations of total SPMs and of the indicated individual SPMs after 24 hours of coagulation in the presence or absence of 200 mU ADA. Data are means±SEM of three individual donors. *P<0.05, **P<0.01 by ratio t-test. (D) Top: LC-MS/MS measurements of adenosine concentrations in whole blood at the indicated time points during coagulation in the presence or absence of ADA. **P<0.01 when compared to the zero-hour time point. Bottom: Flow cytometric analysis of the percentage of neutrophil-platelet aggregates, which were defined as being double-positive for CD16 and CD42b, in whole blood allowed to coagulate for the indicated times in the absence (Coag.) or presence of ADA. Data are means±SEM of five individual donors. *P<0.05, **P <0.01 by student's t test. For dot plots and gating, see FIG. 7B. (E) MS/MS fragmentation profiles with diagnostic ions for the indicated SPMs identified in (C). (F) Left: PCA score plot. Red denotes +ADA for 1 hour; yellow, coagulation for 1 hour; green, coagulation for 24 hours; blue, +ADA for 24 hours. Right: PCA loading plot showing temporal clustering of the indicated mediators from three individual donors. Red denotes LM at 1 hour; blue denotes 24 hours with ADA).
FIG. 8 illustrates SPM formation in human blood clots being regulated by lipoxygenase activity. (A and B) Freshly drawn human peripheral blood (4 ml) was placed in silicone-coated tubes at 37° C. for 24 hours and coagulation was stopped by snap-freezing before LC-MS/MS analysis was performed. Concentrations of total SPMs, prostaglandins, and thromboxanes after 24 hours of coagulation (Coag.) in the presence or absence of (A) 100 μM indomethacin (Indo.) (n=six individual donors), (B) 500 nM celecoxib (CLX) or 20 μM BAI (n=three individual donors). […]

human blood clot = assay: Clot volume after 24 hours of coagulation; format: cell-based; settings: eptifibatide 20 μM, P<0.01
Protocol: (A to E) Freshly drawn human peripheral blood (4 ml) containing heparin (10 U/ml) was placed in polypropylene tubes (A) whereas human peripheral blood without anticoagulant was placed in silicone-coated tubes (B to E) and incubated at 37° C. for the time course of 0 to 24 hours (see Example 1, Materials and Methods). The samples were then subjected to snap-freezing for extraction and LC-MS/MS analysis. […] (B) Left: Combined concentrations of the total SPM cluster, prostaglandins, and thromboxanes after 24 hours of coagulation in the presence or absence of the αIIbβ3 inhibitor eptifibatide (Eptifib.; 20 μM). Middle: Clot volumes after 24 hours of coagulation of the indicated samples. Right: Representative clot images. Data are means±SEM of three individual donors.
Human whole blood was transferred in 4-ml aliquots to negatively charged, silicone-coated 10-ml tubes (BD) without anticoagulant. For experiments with heparin, the heparinized blood was placed in 15-ml polypropylene tubes before incubation at 37° C. For LM profiling at designated times, all samples were immediately subjected to a workup procedure by which whole blood was snap-frozen in a dry ice/isopropanol bath and were returned to room temperature (×3 cycles) before undergoing centrifugation at 100,000 g at 4° C.

[2] = Flow cytometric analysis of clots, cell viability (annexin V / PI); format: cell-based, human; settings: human
Protocol: (§1) Human peripheral blood was collected from healthy individuals without anticoagulant and allowed to coagulate for 24 hours as described earlier. Clots were washed with phosphate-buffered saline (PBS) containing Ca2+ (0.9 mM) and Mg2+ (0.5 mM) and then gently homogenized and passed through a 70-micron filter. Clot-derived cells were stained for flow cytometric analysis. Cells were stained in FACS buffer (PBS with 1% BSA and 0.1% sodium azide). […] For viability assays, FITC-conjugated annexin V (BD) and propidium iodide (PI) were added to the cells according to the manufacturer's protocol. Samples were analyzed with a FACS Canto II flow cytometer (BD Bioscience) and FlowJo X Software.

[3] = test system: clot-derived leukocytes and lymphocytes; assay: as above; format: cell-based, human
Protocol: as §1

[4] = ADA, P<0.01
Protocol: Human blood was subjected to the same freeze-thaw procedure as was used for the metabololipidomics. After centrifugation at 1000 g at 4° C. for 5 min, supernatants were reconstituted with 4 volumes of methanol and kept on ice for 30 min to facilitate protein precipitation. Samples were then subjected to centrifugation at 1000 g at 4° C. for 5 min. Supernatants were reconstituted to <1% methanol and then taken to LC-MS/MS for identification and quantitation of adenosine by matched retention time with ≥99%, pure adenosine (Sigma) through MRM transition 268>136 for the protonated adenine fragment (54).

[5] = test system: neutrophil-platelet aggregates; assay: Neutrophil-platelet interactions by flow cytometry; format: cell-based, human; settings: with ADA
Protocol: Whole blood was collected from healthy individuals without anticoagulant and allowed to coagulate for 1, 6, or 24 h with or without ADA. Clots were washed with PBS and then gently homogenized and passed through a 70 micron-filter. Clot derived neutrophil-platelet interactions were analyzed by flow cytometry with FITC-conjugated anti-human CD16 antibody (clone ebio CB16), and PE-conjugated anti-human CD42b (clone HIP1). Neutrophils were identified by their cell surface expression of CD16 and high side and forward scatter. Platelets were identified based on their low side and forward scatter on a log scale and on their cell surface expression of CD42b. Neutrophil and platelet aggregates were identified as CD14-cells that were double-positive for CD42b and CD16 as CD14-,CD42b+,CD16+,SSChigh,FSChigh.

[6] = 24 h coagulation, n = 3, mean +/- S.E.M.

Row | Molecule | reduction of the total amount of the SPM cluster ([1]; eptifibatide 20 μM, 24 hours of coagulation, P<0.01) [%] | increase in clot volume (human blood clot) [%] | viability at 24 h [2] [%] | Early apoptosis [3] [%] | Late apoptosis [3] [%] | Necrotic [3] [%] | cell viability (in words) [3] | time by which adenosine was cleared during coagulation [4] [h] | total SPM production vs. coagulation alone ([1]; 200 mU ADA, 24 hours) | Early apoptosis [3, 6] [%] | Late apoptosis [3, 6] [%] | Live [3, 6] [%] | Necrotic [3, 6] [%] | cell viability (in words) ([3]; during coagulation) | number of platelet-neutrophil aggregates during the time course of coagulation [5]
1 | N=C(N)NCCCC[C@@H]1NC(=O)CCSSC[C@@H](C(N)=O)NC(=O)[C@@H]2CCCN2C(=O)[C@H](Cc2c[nH]c3ccccc23)NC(=O)[C@H](CC(=O)O)NC(=O)CNC1=O [Eptifibatide, eptifibatide, reference compound] ([Mpa][hArg]GDWPC-NH2; disulfide 1-7) | ~50 | ~20 | 90.6 ± 1.3 | 5.1 ± 1.9 | 2.0 ± 0.5 | 0.9 ± 0.1 | without reducing cell viability | – | – | – | – | – | – | – | –
2 | B1 | – | – | – | – | – | – | – | ≤ 1 | more than 8 times | 9.9 ± 2.9 | 5.8 ± 1.4 | 81.5 ± 0.5 | 2.7 ± 2.0 | Cell viability was not decreased | statistically significantly increased

From patent publication US11592453B2, “Personalized metabolomic profiling of specialized pro-resolving mediators” (THE BRIGHAM AND WOMEN'S HOSPITAL, INC., priority 2016, dated 2023)
